Data as given in publication PMC10015889, “Hemophilia A subjects with an intron-22 gene inversion mutation show CD4^+ T-effector responses to multiple epitopes in FVIII” (Frontiers in Immunology, 2023).

Legend:
DR1001 = assay: Peptide-MHCII competition binding assay, DR1001; details: biotinylated and non-biotinylated versions of the reference peptide; read-out: Binding affinity of reference peptide (IC50), DRB1*1001
Procedure: (§1) Quantitative peptide-MHC competition binding assays were carried out to determine binding avidities of four 20-mer peptides spanning the F8 exon 22-23 junction region to 10 HLA-DRB1 proteins using methodology described previously ([29]). Briefly, 1-µl aliquots of serially diluted (50nM – 50μM in DMSO) non-biotinylated FVIII peptides, were added to triplicate wells of 96-well polypropylene plates. Serially diluted non-FVIII reference peptides known to bind to specific HLA-DRB1 ( Table S6 ) were added to separate wells as positive controls. The HLA-DRB1 proteins were diluted to 50 nM in 150 mM citrate-phosphate, pH 5.4, 0.75% n-octyl-beta-D-glucopyranoside, 1 mM PMSF. 50 μl of the HLA-DRB1 solution was added per well, and the plates were sealed and incubated at 37°C for 30 min to allow peptide binding to the HLA-DRB1 protein. […] Wallac enhancement solution (100 μl/well) was then added, and the plates were incubated at room temperature for 30 min and then read on a Victor 2D time-resolved fluorometer. Sigmoidal binding curves were simulated and IC50 values calculated for the FVIII peptides, based on their competition with the reference peptides for each HLA-DRB1.

DR1104 = assay: Peptide-MHCII competition binding assay, DR1104; details: biotinylated and non-biotinylated versions of the reference peptide; read-out: Binding affinity of reference peptide (IC50), DRB1*1104
Procedure: as §1

HLA-DR0101 = biological target: T1, HLA-DR0101 (Homo sapiens, UniProt P01903+P01911, A100R/D57E/F55L/F60I/F76Y/I96L/L162R/M171V/P40L/Q125E/R42F/V115G/Y59C); details: earlier study; cited from earlier work
T1 construct: Recombinant, extracellular domains of 10 HLA-DRB1 protein monomers; purchased Tetramer Core Facility, Benaroya Research Institute

HLA-DR1101 = biological target: T2, HLA-DR1101 (Homo sapiens, UniProt P01903+P01911, A100R/A169T/A87E/I96F/K41T/L162R/M171V/P40S/Q125H/Q178H/Q39Y/Q99D/R42S/S66Y/T262R/V115G/W38E); details: earlier study; cited from earlier work
T2 construct: Recombinant, extracellular domains of 10 HLA-DRB1 protein monomers; purchased Tetramer Core Facility, Benaroya Research Institute

HLA-DR1501 = biological target: T3, HLA-DR1501 (Homo sapiens, UniProt P01903+P01911); details: earlier study; cited from earlier work
T3 construct: Recombinant, extracellular domains of 10 HLA-DRB1 protein monomers; purchased Tetramer Core Facility, Benaroya Research Institute

T2 sequence (P01903 26-216 limits assumed, other chains not shown): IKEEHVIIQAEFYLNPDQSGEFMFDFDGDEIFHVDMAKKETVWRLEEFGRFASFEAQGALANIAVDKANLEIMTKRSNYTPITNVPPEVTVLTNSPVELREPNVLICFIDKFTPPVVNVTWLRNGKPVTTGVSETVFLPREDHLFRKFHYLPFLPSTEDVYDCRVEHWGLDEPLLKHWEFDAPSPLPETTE

TT 560-571: reference peptide for DRB1*1001 binding (IYQYLYAQKSPT; UniProt P04958 560-571, looked up, fragment)
IC50 (DR1001): 200 nM

VP16 34-44: reference peptide for DRB1*1104 binding (APPLYATGRLS; UniProt P06492 34-44, looked up, fragment)
IC50 (DR1104): 900 ± 100 nM

R593-608: R593-608 motif of FVIII tested in earlier study (ref 20) (RFLPNPAGVQLEDPEF; UniProt P00451 612-627, looked up, fragment)
Peptide-HLA-DR binding, in words, DR0101 (HLA-DR0101): micromolar | Peptide-HLA-DR binding, in words, DR1101 (HLA-DR1101): micromolar | Peptide-HLA-DR binding, in words, DR1501 (HLA-DR1501): micromolar
